Publication PMC8673666 (PLoS Pathogens, 2021)

Columns and labels:
[1] = target: human integrin αvβ8 on M000216 melanoma cells (human (endogenous in M000216)) (UniProt P06756); test: flow cytometry on cells
[2] = target: mouse integrin αvβ8 on B16-mβ8 cells (mouse (endogenous in B16) | mouse) (UniProt P43406); test: flow cytometry on cells
[3] = target: recombinant soluble fiber knob of mouse adenovirus 3 (FK-M3) (mouse adenovirus 3 (MAdV-3)); test: SEC-MALS
[4] = target: mouse integrin αvβ6 on B16-mβ6 cells (mouse (endogenous in B16) | mouse) (UniProt P43406); test: flow cytometry on cells
[5] = target: mouse integrin αvβ6 on CMT-93 cells (mouse (endogenous in CMT-93)) (UniProt P43406); test: flow cytometry on cells
[6] = target: biotinylated fiber knob of mouse adenovirus 3 (FKb-M3) (mouse adenovirus 3 (MAdV-3)); test: SPR; […], single cycle; Biacore T200, 20°C; […] (CaCl2, MgCl2, […]; 1:1 kinetic model
[7] = target: the molecule itself; test: SEC-MALS
[8] = target: T1, soluble mouse integrin αvβ6 (sITG mαvβ6) (mouse, UniProt P43406;Q9Z0T9); test: SPR; […], single cycle; Biacore T200, 20°C; […] (CaCl2, MgCl2, […]; 1:1 kinetic model; conditions: both partners purified
T1 construct: also called mouse sITG αvβ6; source: bought: R&D Systems, expressed in and secreted from CHO cells

[9] = target: T2, soluble human integrin αvβ6 (sITG hαvβ6) (human, UniProt P06756;P18564); test: as above; conditions: both partners purified
T2 construct: also called human sITG αvβ6

[10] = target: T3, soluble human integrin αvβ8 (sITG hαvβ8) (human, UniProt P06756;P26012); test: as above; conditions: both partners purified
T3 construct: also called human sITG αvβ8

[11] = target: T4, mouse integrin αvβ6 on B16-mβ6 cells (mouse (endogenous in B16) | mouse, UniProt P43406;Q9Z0T9); test: flow cytometry on cells; conditions: one partner purified
T4 construct: also called mαvβ6

Chain of human integrin αvβ8 on M000216 melanoma cells (human (endogenous in M000216)) (P06756 31-1048, chain 1 of 2): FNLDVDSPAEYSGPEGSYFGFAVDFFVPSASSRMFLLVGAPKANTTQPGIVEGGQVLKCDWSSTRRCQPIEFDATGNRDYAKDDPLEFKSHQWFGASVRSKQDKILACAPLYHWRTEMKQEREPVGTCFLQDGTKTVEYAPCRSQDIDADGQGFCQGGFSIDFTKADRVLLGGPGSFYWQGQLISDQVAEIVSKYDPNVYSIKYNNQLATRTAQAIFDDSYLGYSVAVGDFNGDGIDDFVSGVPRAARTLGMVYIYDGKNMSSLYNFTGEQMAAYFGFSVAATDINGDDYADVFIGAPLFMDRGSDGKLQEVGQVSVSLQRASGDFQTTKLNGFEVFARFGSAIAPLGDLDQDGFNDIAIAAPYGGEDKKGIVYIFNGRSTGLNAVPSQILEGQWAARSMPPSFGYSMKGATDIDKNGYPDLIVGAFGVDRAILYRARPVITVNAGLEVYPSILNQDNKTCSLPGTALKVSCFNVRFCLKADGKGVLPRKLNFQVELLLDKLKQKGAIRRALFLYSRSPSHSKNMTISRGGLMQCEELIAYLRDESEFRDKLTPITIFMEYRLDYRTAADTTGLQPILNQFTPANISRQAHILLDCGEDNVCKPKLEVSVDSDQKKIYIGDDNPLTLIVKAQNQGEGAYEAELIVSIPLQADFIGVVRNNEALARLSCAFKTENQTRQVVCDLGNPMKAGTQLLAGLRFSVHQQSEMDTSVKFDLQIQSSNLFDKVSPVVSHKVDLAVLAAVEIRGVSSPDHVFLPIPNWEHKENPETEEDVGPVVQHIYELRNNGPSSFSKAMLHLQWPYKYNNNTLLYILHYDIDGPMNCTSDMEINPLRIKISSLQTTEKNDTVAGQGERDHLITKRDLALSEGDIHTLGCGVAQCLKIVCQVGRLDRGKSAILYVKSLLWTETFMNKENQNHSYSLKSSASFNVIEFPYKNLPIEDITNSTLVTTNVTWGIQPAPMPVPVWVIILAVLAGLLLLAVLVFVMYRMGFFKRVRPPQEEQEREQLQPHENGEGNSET
Chain of human integrin αvβ8 on M000216 melanoma cells (human (endogenous in M000216)) (P26012 43-769, chain 2 of 2, further chain): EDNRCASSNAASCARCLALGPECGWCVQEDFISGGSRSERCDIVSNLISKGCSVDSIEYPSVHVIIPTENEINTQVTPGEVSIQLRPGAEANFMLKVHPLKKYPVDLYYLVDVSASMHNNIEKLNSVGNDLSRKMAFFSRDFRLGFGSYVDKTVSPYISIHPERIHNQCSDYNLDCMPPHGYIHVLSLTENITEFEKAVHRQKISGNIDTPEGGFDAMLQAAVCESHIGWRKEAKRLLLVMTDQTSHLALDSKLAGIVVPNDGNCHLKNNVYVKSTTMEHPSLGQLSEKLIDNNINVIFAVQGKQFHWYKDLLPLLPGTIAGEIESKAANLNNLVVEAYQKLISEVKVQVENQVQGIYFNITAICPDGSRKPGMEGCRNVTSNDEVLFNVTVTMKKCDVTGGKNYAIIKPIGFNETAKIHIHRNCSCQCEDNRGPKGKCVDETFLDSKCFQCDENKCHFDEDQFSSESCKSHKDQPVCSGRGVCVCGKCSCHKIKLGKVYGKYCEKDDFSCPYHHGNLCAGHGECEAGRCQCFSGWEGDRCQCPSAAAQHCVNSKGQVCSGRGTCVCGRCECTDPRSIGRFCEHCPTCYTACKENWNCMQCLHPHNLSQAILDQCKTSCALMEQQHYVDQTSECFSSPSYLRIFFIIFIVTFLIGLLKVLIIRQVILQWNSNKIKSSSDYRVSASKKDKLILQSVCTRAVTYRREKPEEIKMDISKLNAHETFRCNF
T1 sequence (P43406 31-988, chain 1 of 2): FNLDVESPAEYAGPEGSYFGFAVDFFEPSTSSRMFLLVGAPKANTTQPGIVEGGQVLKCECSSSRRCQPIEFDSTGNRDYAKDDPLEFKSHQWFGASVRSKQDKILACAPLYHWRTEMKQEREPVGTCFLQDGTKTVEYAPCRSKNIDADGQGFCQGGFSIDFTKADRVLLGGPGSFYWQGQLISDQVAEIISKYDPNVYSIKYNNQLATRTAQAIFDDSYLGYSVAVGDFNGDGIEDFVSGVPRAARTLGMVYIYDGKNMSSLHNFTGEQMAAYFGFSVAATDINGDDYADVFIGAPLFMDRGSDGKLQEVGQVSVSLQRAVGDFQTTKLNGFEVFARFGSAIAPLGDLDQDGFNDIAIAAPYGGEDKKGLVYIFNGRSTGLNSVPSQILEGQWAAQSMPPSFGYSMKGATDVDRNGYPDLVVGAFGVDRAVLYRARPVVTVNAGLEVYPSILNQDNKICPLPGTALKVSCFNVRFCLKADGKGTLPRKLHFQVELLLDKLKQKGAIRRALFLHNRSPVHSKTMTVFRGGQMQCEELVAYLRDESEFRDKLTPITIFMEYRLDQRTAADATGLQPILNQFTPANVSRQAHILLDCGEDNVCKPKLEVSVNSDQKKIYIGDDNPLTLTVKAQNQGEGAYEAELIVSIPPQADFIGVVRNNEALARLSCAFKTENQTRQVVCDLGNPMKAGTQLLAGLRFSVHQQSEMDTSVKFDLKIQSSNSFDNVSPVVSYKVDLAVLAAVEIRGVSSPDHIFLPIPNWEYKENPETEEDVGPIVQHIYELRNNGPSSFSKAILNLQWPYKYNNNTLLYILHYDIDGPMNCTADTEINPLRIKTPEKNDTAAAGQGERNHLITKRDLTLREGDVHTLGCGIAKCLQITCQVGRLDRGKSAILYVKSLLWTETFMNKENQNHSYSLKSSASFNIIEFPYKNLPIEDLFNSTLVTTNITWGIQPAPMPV
T1 sequence (Q9Z0T9 22-708, chain 2 of 2): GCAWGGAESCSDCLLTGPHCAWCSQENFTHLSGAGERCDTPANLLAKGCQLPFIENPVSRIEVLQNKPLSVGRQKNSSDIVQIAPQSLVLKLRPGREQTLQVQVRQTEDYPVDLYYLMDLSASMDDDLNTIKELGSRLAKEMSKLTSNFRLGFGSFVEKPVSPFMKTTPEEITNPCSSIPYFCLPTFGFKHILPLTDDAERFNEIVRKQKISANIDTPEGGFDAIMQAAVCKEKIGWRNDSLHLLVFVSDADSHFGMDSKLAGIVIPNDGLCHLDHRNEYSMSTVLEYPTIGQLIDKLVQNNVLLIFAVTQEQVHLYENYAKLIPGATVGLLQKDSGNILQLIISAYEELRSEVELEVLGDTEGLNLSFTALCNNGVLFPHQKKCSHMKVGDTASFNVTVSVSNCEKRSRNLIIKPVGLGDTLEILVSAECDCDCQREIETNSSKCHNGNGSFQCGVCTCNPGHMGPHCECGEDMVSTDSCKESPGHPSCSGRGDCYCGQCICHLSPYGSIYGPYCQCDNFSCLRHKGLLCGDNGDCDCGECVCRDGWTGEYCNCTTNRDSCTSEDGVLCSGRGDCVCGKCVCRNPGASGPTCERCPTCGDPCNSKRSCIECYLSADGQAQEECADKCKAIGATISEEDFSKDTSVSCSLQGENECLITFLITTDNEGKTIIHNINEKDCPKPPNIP
T2 sequence (P06756 31-992, chain 1 of 2): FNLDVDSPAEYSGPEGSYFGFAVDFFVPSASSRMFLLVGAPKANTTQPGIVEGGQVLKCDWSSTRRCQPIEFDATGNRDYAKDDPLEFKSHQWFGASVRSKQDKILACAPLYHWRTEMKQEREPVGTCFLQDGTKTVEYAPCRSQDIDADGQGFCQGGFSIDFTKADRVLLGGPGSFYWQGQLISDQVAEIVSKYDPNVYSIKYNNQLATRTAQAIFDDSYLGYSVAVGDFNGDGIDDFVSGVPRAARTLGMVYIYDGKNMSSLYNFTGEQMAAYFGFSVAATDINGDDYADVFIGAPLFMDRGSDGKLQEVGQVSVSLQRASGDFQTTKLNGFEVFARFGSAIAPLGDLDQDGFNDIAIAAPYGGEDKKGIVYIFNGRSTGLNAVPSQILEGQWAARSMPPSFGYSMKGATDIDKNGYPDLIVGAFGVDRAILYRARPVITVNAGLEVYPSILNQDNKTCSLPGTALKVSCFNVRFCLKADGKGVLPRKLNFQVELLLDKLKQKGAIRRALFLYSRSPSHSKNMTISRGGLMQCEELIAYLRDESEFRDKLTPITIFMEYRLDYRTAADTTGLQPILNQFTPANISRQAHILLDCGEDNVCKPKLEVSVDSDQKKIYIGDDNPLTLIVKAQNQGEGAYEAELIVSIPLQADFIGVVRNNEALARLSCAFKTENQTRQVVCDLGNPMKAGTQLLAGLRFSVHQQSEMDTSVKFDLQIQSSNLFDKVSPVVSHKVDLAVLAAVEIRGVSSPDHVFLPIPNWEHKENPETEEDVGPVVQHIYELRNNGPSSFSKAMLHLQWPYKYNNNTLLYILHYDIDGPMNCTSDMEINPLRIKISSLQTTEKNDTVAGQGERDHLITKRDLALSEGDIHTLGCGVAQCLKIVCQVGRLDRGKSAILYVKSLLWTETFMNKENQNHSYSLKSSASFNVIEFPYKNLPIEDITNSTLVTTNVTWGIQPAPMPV
T2 sequence (P18564 22-709, chain 2 of 2): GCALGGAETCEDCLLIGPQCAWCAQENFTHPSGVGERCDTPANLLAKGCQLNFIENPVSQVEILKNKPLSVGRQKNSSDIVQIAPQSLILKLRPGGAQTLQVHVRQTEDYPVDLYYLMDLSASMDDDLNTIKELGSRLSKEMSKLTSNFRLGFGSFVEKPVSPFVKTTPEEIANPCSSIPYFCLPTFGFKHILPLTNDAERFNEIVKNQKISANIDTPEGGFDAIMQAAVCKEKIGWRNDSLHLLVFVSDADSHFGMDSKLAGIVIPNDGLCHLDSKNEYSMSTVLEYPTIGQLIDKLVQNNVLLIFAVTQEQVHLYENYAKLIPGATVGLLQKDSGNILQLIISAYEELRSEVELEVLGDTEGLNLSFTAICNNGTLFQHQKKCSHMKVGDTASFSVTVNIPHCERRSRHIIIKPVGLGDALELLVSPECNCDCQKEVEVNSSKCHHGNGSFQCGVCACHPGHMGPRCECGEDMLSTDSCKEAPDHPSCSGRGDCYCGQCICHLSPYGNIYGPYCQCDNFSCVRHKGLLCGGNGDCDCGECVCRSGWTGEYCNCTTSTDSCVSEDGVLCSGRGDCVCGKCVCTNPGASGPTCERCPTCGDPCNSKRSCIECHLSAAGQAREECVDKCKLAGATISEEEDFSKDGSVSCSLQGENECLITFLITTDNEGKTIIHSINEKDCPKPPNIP

## MAdV-1-IX-2A-GFP virus particles (M1-IX-G), bearing the M1 fiber (from UniProt P19721 1-613) (complex)
[1]
  fold increase of the binding enhancement in the presence of Mn2+: 1.5 fold
[2]
  fold increase of virus binding, Mg2+/Ca2+ buffer: 1.3 fold

## MAdV-3-IX-2A-GFP virus particles (M3-IX-G), bearing the M3 fiber (complex)
[1]
  fold increase of the binding enhancement in the presence of Mn2+: 3.4 fold
[2]
  fold increase of virus binding, Mg2+/Ca2+ buffer: 1.3 fold
  fold increase of virus binding, Mn2+ buffer: 2.7 fold

## recombinant soluble fiber knob of mouse adenovirus 3 (FK-M3) (domain or fragment)
[3]
  stoichiometry N: 3
[1]
  Kd: 1.21 nM
[4]
  Kd: 0.068 nM
[5]
  Kd: 0.069 nM
[2]
  Kd: 1.31 nM

## soluble human integrin αvβ6 (sITG hαvβ6) (from UniProt P06756;P18564) (receptor)
[6]
  Kd: 0.059 nM
  koff: 5.01e-06 s⁻¹
  kon: 85000 M⁻¹ s⁻¹

## soluble human integrin αvβ8 (sITG hαvβ8) (from UniProt P06756;P26012) (receptor)
[6]
  Kd: 1.32 nM
  koff: 0.000965 s⁻¹
  kon: 729000 M⁻¹ s⁻¹

## soluble mouse integrin αvβ6 (sITG mαvβ6) (from UniProt P43406;Q9Z0T9) (receptor)
[6]
  Kd: < 0.01 nM
  koff: 3.12e-08 s⁻¹
  kon: 51300 M⁻¹ s⁻¹

B1: biotinylated fiber knob of mouse adenovirus 1 (FKb-M1) (domain or fragment)
chain: GLPIGNNGTFHTKQDCKIFLSLTRLGPMVHGTFMLQAPQYELTTNGMREITFSFNSTGGLEQPAPVTYWGALDPPPTAKAAEIENQKRVKKRAAPDPPVEPPPKRRGDLAVLFAKVAEQAMELAKEQAVQAQPPEHVNTDWADHMNLLRFMPNTLVYPTAATIAANLQFHDTRLSLRRATLKIRLNGSPDSAYQLGFMLELVGTQSASIVTDTISFWYYAEDY
modifications: biotin (biotinylated by co-expressed protein biotin ligase BirA)
[7]
  stoichiometry N: 3
[8]
  Kd: 0.25 nM
  koff: 1.66e-05 s⁻¹
  kon: 66400 M⁻¹ s⁻¹
[9]
  Kd: 1.58 nM
  koff: 0.000127 s⁻¹
  kon: 80200 M⁻¹ s⁻¹
[10]
  Kd: 14.5 nM
  koff: 0.00673 s⁻¹
  kon: 465000 M⁻¹ s⁻¹

B2: recombinant soluble fiber knob of mouse adenovirus 1 (FK-M1) (domain or fragment)
chain: GLPIGNNGTFHTKQDCKIFLSLTRLGPMVHGTFMLQAPQYELTTNGMREITFSFNSTGGLEQPAPVTYWGALDPPPTAKAAEIENQKRVKKRAAPDPPVEPPPKRRGDLAVLFAKVAEQAMELAKEQAVQAQPPEHVNTDWADHMNLLRFMPNTLVYPTAATIAANLQFHDTRLSLRRATLKIRLNGSPDSAYQLGFMLELVGTQSASIVTDTISFWYYAEDY
notes: source: pET28a expression, purified (Ni-NTA); not shown: His6, N-terminal, kept
[11]
  Kd: 1.27 ± 0.66 nM

B3: biotinylated fiber knob of human adenovirus C5 (FKb-H5) (domain or fragment)
chain: TPAPSPNCRLNAEKDAKLTLVLTKCGSQILATVSVLAVKGSLAPISGTVQSAHLIIRFDENGVLLNNSFLDPEYWNFRNGDLTEGTAYTNAVGFMPNLSAYPKSHGKTAKSNIVSQVYLNGDKTKPVTLTITLNGTQETGDTTPSAYSMSFSWDWSGHNYINEIFATSSYTFSYIAQE
modifications: biotin (biotinylated by co-expressed protein biotin ligase BirA)
[7]
  stoichiometry N: 3
